From patent US20040072736A1 (Boehringer Ingelheim, published 2004)
Bridges are numbered along the chain shown (N, C = ends).

Molecular target: T1, human glucagon receptor (human, UniProt P47871 26-477)
T1 construct: whole, on cells; The assay used plasma membranes from stably transfected BHK-21 cells; also called cloned human glucagon receptor
Assay: competition radioligand binding; displacement of 125I-glucagon from BHK-21 membranes with the human glucagon receptor; filtration
Protocol: Binding of peptides to the glucagon receptor was assayed in a competition binding-assay using a membrane fraction containing the cloned human glucagon receptor and radiolabeled glucagon.
For measuring competition with glucagon binding, 20 μg of the membrane suspension were incubated for 60 minutes in covered microtiter plates (Optiplate, Packard Instruments) with 50.000 cpm 125I-glucagon (Amersham Pharmacia), and one concentration of the test compound in a total volume of 100 μl. The protein-bound radioactivity is separated from unbound ligand by filtration and washing on a Multiscreen-Vakuumfiltrationsystem (Millipore) using GC/B filters (Packard) and measured after addition of 20 μl Microscint 20 in a topcount scintillation counter (Packard). The non-specific binding is defined as radioactivity bound in the presence of 1 μM glucagon (Wherl GmbH).

T1 sequence (P47871 26-477): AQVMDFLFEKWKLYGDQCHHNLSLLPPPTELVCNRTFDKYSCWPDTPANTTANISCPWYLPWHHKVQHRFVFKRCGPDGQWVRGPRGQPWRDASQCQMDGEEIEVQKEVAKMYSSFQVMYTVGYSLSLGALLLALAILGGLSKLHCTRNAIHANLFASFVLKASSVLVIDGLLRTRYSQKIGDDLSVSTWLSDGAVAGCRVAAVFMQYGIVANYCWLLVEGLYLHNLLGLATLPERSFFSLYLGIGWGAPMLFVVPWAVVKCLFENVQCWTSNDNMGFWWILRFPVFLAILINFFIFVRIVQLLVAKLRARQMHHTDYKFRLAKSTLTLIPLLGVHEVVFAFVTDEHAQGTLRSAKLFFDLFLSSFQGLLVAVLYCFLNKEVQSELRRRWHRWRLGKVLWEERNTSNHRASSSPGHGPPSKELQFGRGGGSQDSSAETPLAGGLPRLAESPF

Binder | IC50
GLPWGCPSDIPGWNTPWAC-OH (disulfide 6-19; lactam N-9; SMILES CC[C@H](C)[C@@H]1NC(=O)[C@@H]2CC(=O)NCC(=O)N[C@@H](CC(C)C)C(=O)N3CCC[C@H]3C(=O)N[C@@H](Cc3c[nH]c4ccccc34)C(=O)NCC(=O)N[C@@H](CSSC[C@@H](C(=O)O)NC(=O)[C@H](C)NC(=O)[C@H](Cc3c[nH]c4ccccc34)NC(=O)[C@@H]3CCCN3C(=O)[C@H]([C@@H](C)O)NC(=O)[C@H](CC(N)=O)NC(=O)[C@H](Cc3c[nH]c4ccccc34)NC(=O)CNC(=O)[C@@H]3CCCN3C1=O)C(=O)N1CCC[C@H]1C(=O)N[C@@H](CO)C(=O)N2) [bicyclic nonadecapeptide of Example 1 (SEQ ID NO. 5), free acid (R = H)] | 100 nM
GLPWGCPSDIPGWNTPWAC-OMe (disulfide 6-19; lactam N-9; SMILES CC[C@H](C)[C@@H]1NC(=O)[C@@H]2CC(=O)NCC(=O)N[C@@H](CC(C)C)C(=O)N3CCC[C@H]3C(=O)N[C@@H](Cc3c[nH]c4ccccc34)C(=O)NCC(=O)N[C@@H](CSSC[C@@H](C(=O)OC)NC(=O)[C@H](C)NC(=O)[C@H](Cc3c[nH]c4ccccc34)NC(=O)[C@@H]3CCCN3C(=O)[C@H]([C@@H](C)O)NC(=O)[C@H](CC(N)=O)NC(=O)[C@H](Cc3c[nH]c4ccccc34)NC(=O)CNC(=O)[C@@H]3CCCN3C1=O)C(=O)N1CCC[C@H]1C(=O)N[C@@H](CO)C(=O)N2) [methyl ester of the bicyclic nonadecapeptide of Example 1] | 135 nM
